# Tests used:
# [1] = molecular target: ErbB3 500.Fc (truncated ErbB3 ectodomain-Fc fusion protein homodimer) (human) (UniProt P21860); assay: summary of the Eu-ligand displacement assays (ErbB3 fragment, HRGβ)
# [2] = molecular target: ErbB4 497.Fc (truncated ErbB4 ectodomain-Fc fusion protein homodimer) (human) (UniProt Q15303); assay: summary of the Eu-ligand displacement assays (ErbB4 fragment, HRGβ)
# [3] = molecular target: ErbB3 500.Fc (truncated ErbB3 ectodomain-Fc fusion protein homodimer) (human) (UniProt P21860); assay: displacement of Eu-HRGβ by unlabelled HRGβ from ErbB3 500.Fc captured on protein G
# [4] = molecular target: ErbB4 497.Fc (truncated ErbB4 ectodomain-Fc fusion protein homodimer) (human) (UniProt Q15303); assay: displacement of Eu-HRGβ by unlabelled HRGβ from ErbB4 497.Fc captured on protein G
# [5] = molecular target: full-length ErbB4 ectodomain-Fc fusion homodimer (human) (UniProt Q15303); assay: displacement of Eu-BTC by unlabelled HRGβ from ErbB4 ectodomain-Fc captured on protein G
# [6] = molecular target: ErbB2/4 full-length ectodomain-Fc heterodimer (human) (UniProt P04626); assay: displacement of Eu-BTC by unlabelled HRGβ from ErbB2/4 ectodomain-Fc captured on protein G
# ErbB3 500.Fc (truncated ErbB3 ectodomain-Fc fusion protein homodimer) (human), sequence (P21860 20-500, form in doubt): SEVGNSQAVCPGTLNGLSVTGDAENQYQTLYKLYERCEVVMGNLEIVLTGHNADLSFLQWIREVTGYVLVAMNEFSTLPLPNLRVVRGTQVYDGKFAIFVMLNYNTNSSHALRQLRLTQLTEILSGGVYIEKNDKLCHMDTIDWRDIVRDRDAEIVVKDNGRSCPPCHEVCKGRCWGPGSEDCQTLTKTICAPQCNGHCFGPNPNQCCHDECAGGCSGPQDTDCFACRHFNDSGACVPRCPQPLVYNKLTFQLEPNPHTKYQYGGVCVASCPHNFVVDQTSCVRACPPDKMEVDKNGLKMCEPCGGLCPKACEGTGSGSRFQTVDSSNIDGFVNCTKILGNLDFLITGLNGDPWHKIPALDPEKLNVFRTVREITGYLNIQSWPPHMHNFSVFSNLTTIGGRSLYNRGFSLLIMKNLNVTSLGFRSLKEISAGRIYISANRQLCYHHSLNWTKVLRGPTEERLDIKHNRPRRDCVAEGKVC
# ErbB4 497.Fc (truncated ErbB4 ectodomain-Fc fusion protein homodimer) (human), sequence (Q15303 26-497, form in doubt): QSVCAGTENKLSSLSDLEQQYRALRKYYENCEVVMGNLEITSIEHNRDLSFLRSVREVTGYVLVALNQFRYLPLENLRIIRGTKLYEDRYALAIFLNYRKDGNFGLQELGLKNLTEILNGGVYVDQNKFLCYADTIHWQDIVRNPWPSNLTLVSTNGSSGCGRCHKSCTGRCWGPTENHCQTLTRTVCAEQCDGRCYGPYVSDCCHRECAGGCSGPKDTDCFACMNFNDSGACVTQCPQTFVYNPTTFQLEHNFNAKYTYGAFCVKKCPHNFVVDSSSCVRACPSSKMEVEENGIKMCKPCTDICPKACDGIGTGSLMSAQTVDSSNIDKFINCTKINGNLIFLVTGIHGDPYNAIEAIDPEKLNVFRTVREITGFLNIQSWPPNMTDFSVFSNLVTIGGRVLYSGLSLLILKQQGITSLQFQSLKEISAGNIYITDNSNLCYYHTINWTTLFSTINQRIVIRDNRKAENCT
# full-length ErbB4 ectodomain-Fc fusion homodimer (human), sequence (Q15303 26-651): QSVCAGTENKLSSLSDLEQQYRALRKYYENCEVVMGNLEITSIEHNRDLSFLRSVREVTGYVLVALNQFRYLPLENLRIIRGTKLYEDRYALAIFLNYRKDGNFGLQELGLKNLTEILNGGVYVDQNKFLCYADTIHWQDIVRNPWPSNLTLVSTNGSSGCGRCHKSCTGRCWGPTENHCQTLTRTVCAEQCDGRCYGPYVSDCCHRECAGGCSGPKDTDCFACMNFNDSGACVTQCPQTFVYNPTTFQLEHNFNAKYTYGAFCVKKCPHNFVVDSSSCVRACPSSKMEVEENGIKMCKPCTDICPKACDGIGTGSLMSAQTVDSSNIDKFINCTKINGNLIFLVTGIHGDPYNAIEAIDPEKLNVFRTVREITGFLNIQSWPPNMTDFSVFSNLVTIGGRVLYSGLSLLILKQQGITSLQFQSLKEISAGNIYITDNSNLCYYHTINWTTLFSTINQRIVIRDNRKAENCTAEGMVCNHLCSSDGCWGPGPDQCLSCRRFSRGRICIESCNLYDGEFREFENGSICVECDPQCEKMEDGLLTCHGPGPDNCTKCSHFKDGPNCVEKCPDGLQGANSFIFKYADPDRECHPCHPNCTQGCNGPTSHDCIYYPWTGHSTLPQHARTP
substance,measurement,setting,value
"β-heregulin (HRGβ, Sigma) (ligand)",affinity,[1],< 1 nM
same,affinity,[2],< 1 nM
same,IC50,[3],0.49 nM
same,IC50,[4],0.057 nM
same,IC50,[5],18 nM
same,change of the IC50 against the ErbB4 ectodomain-Fc homodimer,[6],100 fold

# Reference: patent US20060234343A1
